# Source: the RNAGym collection of RNA variant scans (doi:10.1073/pnas.2313332121)
# B1: TPR t1 (parent)
# chain: GACCAAUCUGCCCUCAGAGCUCGAGAACAUCUUCGGAUGCAGAGGAGGCAGGCUUCGGUGGCGCGAUAGCGCCAACGUCCUCAACCUCCAAUGCAUCCCACCACAUGAUGAUGCCUGAAGAGCCUUGGUUUUUUG
# Variants of: B1
# Assay: polymerase ribozyme fitness, log enrichment relative to wild type (log ratio); higher = more active; in vitro selection for triplet polymerase activity
# Procedure, shortened: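 Fitness is a logarithmic measure of how a genotype enriched relative to the wild type, with replicate averages weighted by inverse variance. The logarithm uses base 2, and enrichment came from Illumina sequencing of input and output libraries. Those libraries were PCR-built, transcribed mutants of each subunit of a heterodimeric triplet polymerase ribozyme, passed through one triplicate in vitro selection round that included frozen incubation at −7 °C, gel excision of extended constructs and streptavidin-bead capture. Genotypes were kept only if they had ≥10 input reads and ≥1 read per output.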
row,Variant,polymerase ribozyme fitness (log ratio)
1,G36U C53G C56A,-1.45
2,C49U C80A U81C U106A U112A,-4.56
3,G39U U78G,-0.403
4,U33A U116C,-6.14
5,C70G C123U,-0.882
6,C11A C40U,-2.35
7,G69A G110U,-3.36
8,G45C C97A,-4.5
9,C4U G71U C114G U132A,-3.02
10,C72U A118U G120U,-0.322
11,A5G C28A U33G U55A C73U A100C C124A,-5.92
12,C22G U55G G60U C62G U78C,-5.09
13,C79A A119G,-0.23
14,A37C G52C G60A C86U,-2.95
15,C4G A91C G120U,-1.84
16,C13U U78A C79A U129G,-3.68
17,G69U G71U G117A,-2.19
18,C8A A37U C124A,1.28
19,C70U U81A,-3.3
20,C88A C114U,-2.51
21,C20G A43C C53A A119G,-5.03

row,Variant,polymerase ribozyme fitness (log ratio)
1,C4G G63A,-2.73
2,A5C G63C A75C C94A G113C G122U,-4.55
3,C80U C123A U129C,-1.18
4,U54G U59A C80U C123A U129C,-1.82
5,U33G G61U,-4.97
6,U32C U78C C89A,-1.52
7,A6G C98G,-6.34
8,A41U C49A A50U U55C G60U C115U,-5.28
9,G35C G52U A68C U92A C98G G110C G117U,-6.61
10,C3A G10U U129C,-1.94
11,C11A C12U A37G U78A U131A,-1.88
12,A2U U59C,-2.87
13,C53G C64U G110U G128A U133A,-5.27
14,G10U C15U G69U A91C U125A,-3.03
15,G45A C88A U112G,-0.116
16,G10A U87A C115G C123G,-1.54
17,C20A G57C C62U G120C,-2.1
18,G48A C56G G93U,-2.28
19,U7G G52U,-0.337
20,C40U G47U U109A U129G,-7.79
21,C12U A29G G45U C56U C89A A91U G110A G127U,-5.23

row,Variant,polymerase ribozyme fitness (log ratio)
1,C34A C86A,-3.67
2,G36A G63A,-1.78
3,A83C G128C,-2.09
4,C86A G110A,-1.86
5,C11G G44A U133G,-1.89
6,U106A C115U G127U,-1.18
7,C72U U116C,-0.368
8,C12A U106A,-0.467
9,C56A A66U G71C G120U,-7.24
10,U14G C89G,-3.56
11,U9A G45U G113U G122U,-2.61
12,A43U G45A C53U C56G C62U A84U,-1.89
13,C72A G77A C89U U106C,-1.11
14,C40G G61U A91U C104U,-3.37
15,C40U U112A,0.76
16,G42A U112G,-2.1
17,G36C G120U,-0.655
18,C11U G117A,-2.36
19,A37G C53A G63U U125A,-3.34
20,G36C C72A C76A U106A G110A,-5.56
21,C13U G51A C56G U78G C89U,-0.499

row,Variant,polymerase ribozyme fitness (log ratio)
1,G42U C82G C115G,-3.58
2,U116A C123U,-1.63
3,A46U C73U C82U G93U G110U,-3.63
4,G93A G122A,-1.4
5,G60A A111U,-3.16
6,C89G C94A,-2.52
7,A105U G127C,-2.7
8,A2U C12U C64U,-2.54
9,C3G A18U A43U C114G,-4.61
10,C8A C114G,-2.41
11,G45U C62U U78G C101A G122A,-3.21
12,C15G A26C U54G G71U C114U,-5.95
13,G63C U129A,-2.09
14,G44U G63C,-1.66
15,G10A A74U,-0.813
16,A24G C86G,-2.33
17,C72G C80A U81G C86A,-6.59
18,G48A C79A C97U,-2.68
19,G52U G117U,-3.39
20,U30C G58C C85G,-3.06
21,C15A G69A C104U,-4.06
